# Measured values: patent US20220162649A1, “NOVEL NUCLEIC ACID MODIFIERS” (THE BROAD INSTITUTE, INC., priority 2019, published 2022)
# Where a chain is given by its changes, count along the chain named. In names and notes the source's numbering stands.
# B1: D556A: SaCas9 HNH catalytic residue mutant (protein, UniProt J7RUA5 1-1053, looked up, variant D556A)
# CRISPR-associated …: MKRNYILGLDIGITSVGYGIIDYETRDVIDAGVRLFKEANVENNEGRRSKRGARRLKRRRRHRIQRVKKLLFDYNLLTDHSELSGINPYEARVKGLSQKLSEEEFSAALLHLAKRRGVHNVNEVEEDTGNELSTKEQISRNSKALEEKYVAELQLERLKKDGEVRGSINRFKTSDYVKEAKQLLKVQKAYHQLDQSFIDTYIDLLETRRTYYEGPGEGSPFGWKDIKEWYEMLMGHCTYFPEELRSVKYAYNADLYNALNDLNNLVITRDENEKLEYYEKFQIIENVFKQKKKPTLKQIAKEILVNEEDIKGYRVTSTGKPEFTNLKVYHDIKDITARKEIIENAELLDQIAKILTIYQSSEDIQEELTNLNSELTQEEIEQISNLKGYTGTHNLSLKAINLILDELWHTNDNQIAIFNRLKLVPKKVDLSQQKEIPTTLVDDFILSPVVKRSFIQSIKVINAIIKKYGLPNDIIIELAREKNSKDAQKMINEMQKRNRQTNERIEEIIRTTGKENAKYLIEKIKLHDMQEGKCLYSLEAIPLEDLLNNPFNYEVAHIIPRSVSFDNSFNNKVLVKQEENSKKGNRTPFQYLSSSDSKISYETFKKHILNLAKGKGRISKTKKEYLLEERDINRFSVQKDFINRNLVDTRYATRGLMNLLRSYFRVNNLDVKVKSINGGFTSFLRRKWKFKKERNKGYKHHAEDALIIANADFIFKEWKKLDKAKKVMENQMFEEKQAESMPEIETEQEYKEIFITPHQIKHIKDFKDYKYSHRVDKKPNRELINDTLYSTRKDDKGNTLIVNNLNGLYDKDNDKLKKLINKSPEKLLMYHHDPQTYQKLKLIMEQYGDEKNPLYKYYEETGNYLTKYSKKDNGPVIKKIKYYGNKLNAHLDITDDYPNSRNKVVKLSLKPYRFDVYLDNGVYKFVTVKNLDVIKKENYYEVNSKCYEEAKKLKKISNQAEFIASFYNNDLIKINGELYRVIGVNNDLLNRIEVNMIDITYREYLENMNDKRPPRIIKTIASKTQSIKKYSTDILGNLYEVKSKKHPQIIKKG
# B2: H557A: SaCas9 HNH catalytic residue mutant (protein, UniProt J7RUA5 1-1053, looked up, variant H557A)
# CRISPR-associated …: B1 CRISPR-associated … with A556D, H557A
# B3: N580A: SaCas9 HNH catalytic residue mutant (protein, UniProt J7RUA5 1-1053, looked up, variant N580A)
# CRISPR-associated …: B1 CRISPR-associated … with A556D, N580A
# Experiments:
# [1] = tested on: NHEJ pathway; assay: HiBiT assay of HDR enhancement by small-molecule NHEJ pathway inhibitors; assay type: cell-based
# [2] = tested on: target DNA; conditions: SaCas9 mutants; cited from earlier work
Molecule,HDR enhancement in the HiBiT assay [1],"DNA cleavage activity, in words [2]"
O=c1cc(N2CCOCC2)oc2c(-c3cccc4c3sc3ccccc34)cccc12 [KU-57788],enhanced HDR enhancement,–
CCN1CCN(CC(=O)Nc2ccc(-c3cccc4c(=O)cc(N5CCOCC5)oc34)c3sc4ccccc4c23)CC1 [KU-0060648],enhanced HDR enhancement,–
B1,–,almost no DNA cleavage activities
B2,–,almost no DNA cleavage activities
B3,–,almost no DNA cleavage activities
